Laboratory results: the DeepSol protein solubility set

Test: soluble on expression in E. coli; label from the status in PepcDB or PDB records

Soluble on expression in E. coli, not soluble:
MKPVYLAMNYFGPHEHSIIDFSKLESTPIFLISGDTGAGKSTIFDAMTFALFGSTTNDGTDGRAAKEMRSQFAPADQPTSVTFYFEQGNQLYKIARSPEQYLAKKKGSGLTKKNSTAKLAVVDHVGGVEIESIATKPADVGPEITTILNLTADQFKKIILLPQNDFSEFLKSKTTDKEKILKKIFGTQLYSDFTAELKAEYQTASKTGDQFVADLRVALASATWNDEEQAQLQAVPDNQKIPLLRAFVTTRQSAFDQAQQT, MAEPLFDMSATGRPRILILGGTTEARQLAERLVSEPHYDTAISLAGRTADPRPQPLPTRTGGFGGAEGLAVFLRERNIALLIDATHPFAARISLNAAAAAKMTGTPLLALRRPAWAAEPGDRWTCVGSVAEAVPALGEAPRRVFLAIGRQEAFHFERAPQHSYVVRSVDPVMPPLDLPDVTAILASGPFAQADETELLERHGIDVIVAKNSGGAATYGKIAAARQLGIEVVMVERHKPADVQSVGDCDEALERIRQWLSPVKDRGV, MSAPVADAPAAEIVYKIISSDGVVSKMSEKAVQQSKTLSNLIENLGYTIENIETRDPIPVTNVNGKTMAKVAELCEKHKADAIPEDNMNVLKTLTIPEWDQKFLKIEDEALFDLILASNFLDIKGLMYYGCKTVSNMAKGKTTAELREIFGINTDEQDAAEETAQKAAAEVA, MSEASRDDYKIQSFDAQTQQLLKTALKDPGAVDLERVANVIVDHSLQDCVFSKEAGRMCYAIIQAESKQAGQSVFRRGLLNRLQKEYDAREQLRACSLQGWVCYVTFICNIFDYLRVNNMPMMALVNPVYDCLFQLAQPESLSREEEVDCLVLQLHRVGEQLEKMNGQRMDELFILIRDGFLLPTDLSSLARLLLLEMIEFRAAGWKTTPAAHKYYYSEVSD, MNDGDETLTAGAQGRQFGPLGTALVIIPTYNEAENIKSIVGRVRASVPEAHVLVADDNSPDGTGKLADELAVEDDQVHVLHRKGKEGLGAAYLAGFRWGLDNGYGVLVEMDADGSHRPEELPRLLTALKGADLVLGSRWVPGGRVVNWPKSREFISRGGSLYSRLALDLPQRDITGGYRAFRRETLEGLGLDEVASQGYCFQVDLARRTVKAGYHVVEVPITFVEREFGDSKMSRDILVEALWRVTTWGVGERVGRITGRGPKSSLEHHHHHH, MKRFFLKTILAAFCVYVPAILNTAYACTRIVYQGPNGTIITARSMDWKGEIPANLWIFPRGIERNGEAGSTSVKWKSTYGSVITSSWDIASSDGMNEKGLVGNLLWLVESTYPKFVKDKDKPGLAVSLWLQYVLDNFATVSEAVAFLEKEPFVVASSHIPGTAIFATVHLSISDATGDNAIFEYIGGKLVIHHDRSYVTMTNSPVFDEQLAINTYWKNIPGTVMLPGTNRAADRFVRASYYIDAIPKTDNTRVALPSVFSVIRNCSVPLGISSEAEPNISSTRWRTVSDQKNLVYYFDNVLNPNVVWVEFSKIDFSEKAKVKKLTLANNENYSGEASMNFKAALPFTFAGLD, LTEHLIDSIRTNRTENKIHLKPEPFNIGPYTKLSINKRDNYGTIKIKWFDRVPFTEYKSFLDSSIHNLNTRQITNLIIDLRWNIGGPREYPIYLLSKILNQPFRYCDSLITTKFTFEEKIAFDSTKVFVPMDNGFYKVVKNARGLGQQNPSNVTFTGNIYLLVDGQSNSSSAQVASLIYQNRRGTIIGEEPGGLFEGGTGEHHYYLTLTNSRIKVQIPRYRIVLHVDRSKFHGHGVKPDYEVKPDITDMIQGKDPVMEFTIGLIKK, MEKQPNKLIREKSPYLLQHAWNPVDWHPWGEEAFSRARETGRPIFLSSGYSTCHWCHVMEHESFENAETAALLNRHFVPVKLDREEHPDVDHLYMMFVQATTGRGGWPMSVWMTPDLKPFFGGSYFPATERWGMPSFRSVLEHLANLWEHDRPRLLASAGSIMDQLSGLTRP, MATTATRHQDSKLSEKAESILAGFKLNWMNLRDAETGKVLWQSTEDMADPKREHKAHVPKNLLKCRTVSREINFTSSVKIEKFRLEQRVYLKGTIIEEWYFDFGFVIPDSTNTWQNMIEAAPESQMFPPSVLSGNVVVETLFYDGDLLVSTSRVRLYYD, MTINMALHYPNYFAALVPQATAYSYYQYERNNDGTYKMIEDKNSISGKSSIRTNKIWFDSQKVKTLKNIPIWFIHSAADKVVNPKTYSLPIYKSLLDSGAKNKWFSYYDNVQGKDLKDTTYNGHWSWVYFFNNQVSSVQDVKTIKKSSKLSGFKPSNKSKGGAATAKEGKKSYNNVFDWLNDQKK, MGKLEDICDQYLSRKKEQDKVIEAVERCLKKGYDYEKLKDRVQEAISDPQKARKVISAVCDHYPQLRKRTRTDRDGEDRDRKRDRTDDRRKPDASVPAAVAEPQKPAEQSIEERLRAKEMMYKAQQEIEETKRKMAIAAGTLQPKAALAQAKTQMVAPGGKSLSLGRDEATMLMTHSMDKKSRMEELKARLARTTVMAKIDAMVGNSGAGVMAPLPEAVQQAEKKVQQQITKESKEPEKLIEYLDPRIQARTADRRRRGFNFHEKGEFEKLANKQRAMAKLERLQNEVSSAAQSTGISSAVKLAMVTPTGTAKMENGVPDIEWWDMLVLDKVNYDEIPAENDMERYSQTVSELVEHPISMRAPTEPLTQQYLKVYLTTKEKKKIRRQNRKEVLKEKTEKIRLGLEKAPEPKVKISNLMRVLGNEAIQDPTKMEAQVRKQMAERLKKHETLNAERKLTEDQKRAKKTKKLSEDTSTAVNVSVYRVKSLAHPSKKFKVETNAKQLQMSGAIMMHKAQNVIVVEGGPKQQKFYKNLMINRIKWSDEIIGQKKDAEKDAPGERNLCEMIWEGQVKRRNFRDFTVHTATLEKQAREFFEKHGVAQYWDLCYSTTVLLEGQDILPTA, MLTLENQIKEEREQDNSESPNGRTSPLVSQNNEQGSTLRDLLTTTAGKLRVGSTDAGIAFAPVYAMGAPSSKSGRTMPNILDDIIASVVENKIPPSKTSKINVKPELKEEPEESIISAVDENNKLYSDIPHSWICEKHILWLRIIRIAVIGSFSKNVGNKDSLQWFLVCIRKLEHHHHHH, MGSDKIHHHHHHMETKDLIVIGGGINGAGIAADAAGRGLSVLLLEAQDLACATSSASSKLIHGGLRYLEHYEFRLVSEALSERETLLKMAPHIIFPMRFRLPHQPHLRPAWMIRIGLFMYDNIGKRVSLPASKGLKFGADSVLKPELKQGFEYSDCWVDDARLVVLNAQEVAKRGGEVRTRTKVTRARREQGVWIVDAVDSLTGETFTWRAKGLVNATGPWVKEFFDDGLQLKSPYGIRLIKGSHIVVPRVHNQPQAYILQNKDHRIVFVIPWQDDYSIIGTTDVEYKGNPHDVKIDDNEVGYLLDVYNDHFKQQLTRDDIVWTYSGVRPLCDDESDSPQAITRDYTLSVDDDNGQAPLLSVFGGKLTTYRKLAEHALDKLHKYYPQAGKAWTKDAVLPGGDIAGTRDDYAAALRRRFNLPESLTRRYSRTYGSNSELILANVKGLSDLGEDFGHDLYEAELRYLVEKEWAVTLDDVIWRRTKLGMRFDDAQKQRISDWLVSYRQQQMAKAG

Soluble on expression in E. coli, soluble:
MARPIFSQEIDPYSQEVPKDVAISPSSKFDIYVEAPGEAPFEEADSPAMEYDRELAHHYSHKQLDFLEACSEKPSSKCGNEVFKNMLDETVPITDECCRDILKIGKDCHLGLVKLIFATYEYKNKASKGIPKSKQTWNECVFRVGSKIGAPVSFEQ, VRPLNCIVAVSQNMGIGKNGDLPWPPLRNEFKYFQRMTTTSSVEGKQNLVIMGRKTWFSIPEKNRPLKDRINIVLSRELKEPPRGAHFLAKSLDDALRLIEQPELASKVDMVWIVGGSSVYQEAMNQPGHLRLFVTRIMQEFESDTFFPEIDLGKYKLLPEYPGVLSEVQEEKGIKYKFEVYEKKD, MKGFIDDANYSVGLLDEGTNLGNVIDNYVYEHTLTGKNAFFVGDLGKIVKKHSQWQTVVAQIKPFYTVKCNSTPAVLEILAALGTGFACSSKNEMALVQELGVSPENIIFTSPCKQVSQIKYAAKVGVNIMTCDNEIELKKIARNHPNAKVLLHIATEDNIGGEDGNMKFGTTLKNCRHLLECAKELDVQIIGVKFHVSSACKEYQVYVHALSDARCVFDMAGEFGFTMNMLDIGGGFTGTEIQLEEVNHVISPLLDIYFPEGSGIQIISEPGSYYVSSAFTLAVNIIAKKVVENDKFSSGVEKNGSDEPAFVYYMNDGVYGSFASKLSEDLNTIPEVHKKYKEDEPLFTSSLWGPSCDELDQIVESCLLPELNVGDWLIFDNMGADSFHEPSAFNDFQRPAIYFMMSFSDWYEMQDAGITSDAMMKNFFFAPSCIQLSQEDSFSTEA
